Reference: patent US20050282743A1, “Molecular interactions in cells” (Arbor Vita Corporation, priority 2001, published 2005)
One block for each binder: values may come before it.

Tests used:
[1] = biological target: GST-PSD95 PDZ domains 1, 2, 3 (Homo sapiens), P78352; test: G assay competition vs 10 uM biotin-CD95 20-mer; competitor 100 uM
[2] = biological target: GST-PSD95 PDZ domains 1, 2, 3 (Homo sapiens), P78352; test: G assay competition vs 20 uM biotin-CD46 20-mer; competitor 100 uM
[3] = biological target: GST-PSD95 PDZ domains 1, 2, 3 (Homo sapiens), P78352; test: G assay competition vs 20 uM biotin-CLASP-2 20-mer; competitor 100 uM
[4] = biological target: GST-PSD95 PDZ domains 1, 2, 3 (Homo sapiens), P78352; test: G assay competition vs 10 uM biotin-KV1.3 20-mer; competitor 100 uM
[5] = biological target: T1, GST-MINT1 PDZ domains 1, 2, Q02410; test: G assay titration, PDZ 2 ug/ml
T1 chain: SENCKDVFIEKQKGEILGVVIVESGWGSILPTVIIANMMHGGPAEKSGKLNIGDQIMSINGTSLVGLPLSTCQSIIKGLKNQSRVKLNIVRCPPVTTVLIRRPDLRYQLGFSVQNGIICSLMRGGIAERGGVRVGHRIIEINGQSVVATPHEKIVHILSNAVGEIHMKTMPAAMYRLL

[6] = biological target: T2, GST-PTPL1 PDZ domain 4 (Homo sapiens (Human)), Q12923; test: G assay titration, PDZ 3 ug/ml
T2 chain: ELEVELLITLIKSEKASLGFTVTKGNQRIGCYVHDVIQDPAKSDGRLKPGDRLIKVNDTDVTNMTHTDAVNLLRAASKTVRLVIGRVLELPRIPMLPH

[7] = biological target: T3, GST-MUPP1 PDZ domain 7 (Homo sapiens (Human)), O75970; test: G assay titration, PDZ 5 ug/ml
T3 chain: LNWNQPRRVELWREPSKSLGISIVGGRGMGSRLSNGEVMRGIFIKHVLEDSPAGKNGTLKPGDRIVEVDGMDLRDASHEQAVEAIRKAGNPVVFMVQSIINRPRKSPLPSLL

[8] = biological target: T4, GST-KIAA0751(L) PDZ domain 1 (Mus musculus (Mouse)), Q9EQZ7; test: G' assay; also: key of the grades not given here
T4 chain: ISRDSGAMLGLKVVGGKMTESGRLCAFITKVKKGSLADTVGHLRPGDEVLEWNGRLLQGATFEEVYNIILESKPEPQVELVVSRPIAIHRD

[9] = biological target: T3, GST-MUPP1 PDZ domain 7 (Homo sapiens …); test: G' assay; also: key of the grades not given here
[10] = biological target: T2, GST-PTPL1 PDZ domain 4 (Homo sapiens …); test: G' assay; also: key of the grades not given here
[11] = biological target: T5, GST-AIPC PDZ domain 4 (Homo sapiens (Human)), O15018; test: G' assay; also: key of the grades not given here
T5 chain: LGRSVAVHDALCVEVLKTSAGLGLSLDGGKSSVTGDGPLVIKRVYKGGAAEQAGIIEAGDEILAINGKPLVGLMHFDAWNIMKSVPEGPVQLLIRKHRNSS

[12] = biological target: T6, GST-MUPP1 PDZ domain 9 (Homo sapiens (Human)), O75970; test: G' assay; also: key of the grades not given here
T6 chain: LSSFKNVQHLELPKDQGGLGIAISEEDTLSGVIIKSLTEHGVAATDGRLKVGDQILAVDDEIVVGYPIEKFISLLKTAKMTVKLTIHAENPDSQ

[13] = biological target: T7, GST-KIAA0807(S) PDZ domain 1 (Homo sapiens (Human)), Q6P0Q8; test: G' assay; also: key of the grades not given here
T7 chain: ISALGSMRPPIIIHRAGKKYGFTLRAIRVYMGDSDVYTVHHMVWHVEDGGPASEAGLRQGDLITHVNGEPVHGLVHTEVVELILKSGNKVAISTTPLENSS

[14] = biological target: T8, GST-MUPP1 PDZ domain 3 (Homo sapiens (Human)), O75970; test: G' assay; also: key of the grades not given here
T8 chain: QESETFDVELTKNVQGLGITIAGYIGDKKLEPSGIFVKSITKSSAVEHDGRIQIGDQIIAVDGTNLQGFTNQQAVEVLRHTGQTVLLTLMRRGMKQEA

[15] = biological target: T9, GST-FLJ 10324 PDZ domain 1 [GST: P08515]; test: G' assay; also: key of the grades not given here
T9 chain: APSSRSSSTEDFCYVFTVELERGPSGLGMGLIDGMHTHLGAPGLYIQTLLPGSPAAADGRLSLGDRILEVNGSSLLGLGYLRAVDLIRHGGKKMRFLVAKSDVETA

[16] = biological target: T10, GST-NOS1 PDZ domain 1 (Homo sapiens (Human)), P29475; test: G' assay; also: key of the grades not given here
T10 chain: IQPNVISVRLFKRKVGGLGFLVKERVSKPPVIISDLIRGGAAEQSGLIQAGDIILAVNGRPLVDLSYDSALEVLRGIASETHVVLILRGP

[17] = biological target: GST-PAR3 PDZ domain 3 (Homo sapiens (Human)), Q8TEW0; test: G' assay; also: key of the grades not given here
[18] = biological target: T11, GST-AF6 PDZ domain 1 (Homo sapiens (Human)), P55196; test: G' assay; also: key of the grades not given here
T11 chain: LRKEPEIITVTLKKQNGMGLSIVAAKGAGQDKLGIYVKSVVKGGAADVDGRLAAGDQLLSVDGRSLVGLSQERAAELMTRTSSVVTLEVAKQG

[19] = biological target: T12, GST-ZO-1 PDZ domain 1 (Rattus norvegicus (Rat)), A0A0G2; test: G' assay; also: key of the grades not given here
T12 chain: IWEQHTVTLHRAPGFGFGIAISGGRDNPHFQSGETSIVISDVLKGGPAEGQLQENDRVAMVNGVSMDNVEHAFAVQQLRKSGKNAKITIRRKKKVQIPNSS

[20] = biological target: GST-Atrophin-1 Interacting Protein PDZ domain 5 (Rattus norvegicus (Rat)), O88382; test: G' assay; also: key of the grades not given here
[21] = biological target: T1, GST-MINT1 PDZ domains 1, 2, Q02410; test: G' assay; also: key of the grades not given here
[22] = biological target: T13, GST-KIAA0561 PDZ domain 1 (Homo sapiens (Human)), O60307; test: G' assay; also: key of the grades not given here
T13 chain: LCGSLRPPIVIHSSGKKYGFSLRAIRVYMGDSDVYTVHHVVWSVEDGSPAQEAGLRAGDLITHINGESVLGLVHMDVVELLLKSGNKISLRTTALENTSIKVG

[23] = biological target: T14, GST-HEMBA 1003117 PDZ domain 1 (Homo sapiens (Human)), Q96JH8; test: G' assay; also: key of the grades not given here
T14 chain: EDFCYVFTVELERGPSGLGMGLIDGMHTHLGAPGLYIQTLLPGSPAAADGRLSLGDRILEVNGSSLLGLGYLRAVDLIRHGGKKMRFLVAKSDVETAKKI

[24] = biological target: T15, GST-AIPC PDZ domain 1 (Homo sapiens (Human)), O15018; test: G' assay; also: key of the grades not given here
T15 chain: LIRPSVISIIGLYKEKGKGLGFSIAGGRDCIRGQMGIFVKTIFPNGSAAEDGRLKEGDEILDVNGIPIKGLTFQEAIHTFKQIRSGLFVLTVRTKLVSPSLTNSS

[25] = biological target: T16, GST-DVL2 PDZ domain 1 (Homo sapiens (Human)), O14641; test: G' assay; also: key of the grades not given here
T16 chain: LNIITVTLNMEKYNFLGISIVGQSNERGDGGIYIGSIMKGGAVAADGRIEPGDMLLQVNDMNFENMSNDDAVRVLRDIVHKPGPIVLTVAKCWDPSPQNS

[26] = biological target: T17, GST-INADL PDZ domain 3 (Homo sapiens (Human)), Q8NI35; test: G' assay; also: key of the grades not given here
T17 chain: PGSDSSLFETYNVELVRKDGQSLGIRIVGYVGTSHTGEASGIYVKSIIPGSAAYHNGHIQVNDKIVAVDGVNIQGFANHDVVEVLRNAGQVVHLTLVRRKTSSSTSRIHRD

[27] = biological target: T9, GST-FLJ 10324 PDZ domain 1 [GST: P08515]; test: G assay titration, PDZ 1 ug/ml
[28] = biological target: GST-PAR3 PDZ domain 3 (Homo sapiens (Human)), Q8TEW0; test: G assay titration, PDZ 0.5 ug/ml
[29] = biological target: T14, GST-HEMBA 1003117 PDZ domain 1 (Homo …); test: G assay titration, PDZ 0.5 ug/ml
[30] = biological target: T18, GST-TIP1 PDZ domain 1 (Table 9 insert) (Homo sapiens (Human)), O14907; test: G' assay; also: key of the grades not given here
T18 chain: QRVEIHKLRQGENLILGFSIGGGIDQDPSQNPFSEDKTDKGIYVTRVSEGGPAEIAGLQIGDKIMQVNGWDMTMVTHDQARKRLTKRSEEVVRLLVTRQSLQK

[31] = biological target: T19, GST-KIAA1634 PDZ domain 2 (Homo sapiens (Human)), Q5TCQ9; test: G' assay; also: key of the grades not given here
T19 chain: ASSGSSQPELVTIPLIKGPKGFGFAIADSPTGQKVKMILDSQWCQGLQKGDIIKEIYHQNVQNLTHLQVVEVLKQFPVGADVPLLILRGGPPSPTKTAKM

[32] = biological target: T20, GST-NeDLG PDZ domains 1, 2, Q92796; test: G' assay; also: key of the grades not given here
T20 chain: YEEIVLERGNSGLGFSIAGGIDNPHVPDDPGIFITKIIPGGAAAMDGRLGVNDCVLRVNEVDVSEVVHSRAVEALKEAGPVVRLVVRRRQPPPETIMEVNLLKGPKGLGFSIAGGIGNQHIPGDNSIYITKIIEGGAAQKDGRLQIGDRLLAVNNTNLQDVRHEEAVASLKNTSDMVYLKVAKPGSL

[33] = biological target: GST-BAI-1 Associated Protein PDZ domain 3 (Homo sapiens (Human)), Q96QZ7; test: G' assay; also: key of the grades not given here
[34] = biological target: GST-PSD95 PDZ domains 1, 2, 3 (Homo sapiens), P78352; test: G' assay; also: key of the grades not given here
[35] = biological target: T21, GST-Syntrophin gamma 1 PDZ domain 1 (Homo sapiens (Human)), Q9NSN8; test: G' assay; also: key of the grades not given here
T21 chain: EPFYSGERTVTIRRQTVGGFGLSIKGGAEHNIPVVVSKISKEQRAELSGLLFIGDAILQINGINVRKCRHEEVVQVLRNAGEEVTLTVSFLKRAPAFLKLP

[36] = biological target: GST-DLG1 PDZ domains 1, 2 (Homo sapiens), Q12959; test: G' assay; also: key of the grades not given here
[37] = biological target: T22, GST-PTPL1 PDZ domain 2 (Homo sapiens (Human)), Q12923; test: G' assay; also: key of the grades not given here
T22 chain: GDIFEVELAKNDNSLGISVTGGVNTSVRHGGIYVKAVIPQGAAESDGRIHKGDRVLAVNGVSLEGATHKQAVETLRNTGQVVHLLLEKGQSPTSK

[38] = biological target: T23, GST-Syntrophin 1 alpha PDZ domain 1 (Homo sapiens (Human)), Q13424; test: G' assay; also: key of the grades not given here
T23 chain: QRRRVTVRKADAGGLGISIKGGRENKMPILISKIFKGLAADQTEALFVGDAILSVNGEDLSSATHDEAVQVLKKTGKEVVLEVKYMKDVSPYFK

[39] = biological target: T19, GST-KIAA1634 PDZ domain 2 (Homo sapiens …); test: G assay titration, PDZ 1 ug/ml
[40] = biological target: T22, GST-PTPL1 PDZ domain 2 (Homo sapiens …); test: G assay titration, PDZ 0.5 ug/ml
[41] = biological target: T19, GST-KIAA1634 PDZ domain 2 (Homo sapiens …); test: G assay titration, PDZ 5 ug/ml
[42] = biological target: T22, GST-PTPL1 PDZ domain 2 (Homo sapiens …); test: G assay titration, PDZ 5 ug/ml

Chain of GST-PSD95 PDZ domains 1, 2, 3 (Homo sapiens), P78352 (P78352 62-395): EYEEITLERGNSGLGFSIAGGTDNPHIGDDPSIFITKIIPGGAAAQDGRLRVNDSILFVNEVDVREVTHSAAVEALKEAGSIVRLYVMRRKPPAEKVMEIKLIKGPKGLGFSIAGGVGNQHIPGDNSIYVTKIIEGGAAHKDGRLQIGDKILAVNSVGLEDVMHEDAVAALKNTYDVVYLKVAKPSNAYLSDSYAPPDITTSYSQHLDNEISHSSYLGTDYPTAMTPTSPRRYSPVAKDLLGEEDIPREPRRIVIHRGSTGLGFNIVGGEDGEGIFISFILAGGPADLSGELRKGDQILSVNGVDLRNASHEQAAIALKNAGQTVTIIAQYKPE
Chain of GST-PAR3 PDZ domain 3 (Homo sapiens (Human)), Q8TEW0 (Q8TEW0 579-681): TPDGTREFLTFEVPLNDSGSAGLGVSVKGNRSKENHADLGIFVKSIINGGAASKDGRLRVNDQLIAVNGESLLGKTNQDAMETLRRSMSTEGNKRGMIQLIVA
Chain of GST-Atrophin-1 Interacting Protein PDZ domain 5 (Rattus norvegicus (Rat)), O88382 (O88382 1128-1225): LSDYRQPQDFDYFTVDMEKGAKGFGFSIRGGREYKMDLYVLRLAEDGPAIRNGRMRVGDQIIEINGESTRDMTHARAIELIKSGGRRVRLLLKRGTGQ
Chain of GST-BAI-1 Associated Protein PDZ domain 3 (Homo sapiens (Human)), Q96QZ7 (Q96QZ7 other isoform, or with tags, fused parts or gaps): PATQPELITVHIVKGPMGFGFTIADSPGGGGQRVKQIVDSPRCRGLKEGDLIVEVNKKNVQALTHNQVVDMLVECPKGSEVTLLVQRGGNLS

B1: CD46 8-mer (peptide)
peptide: REVKFTSL
modifications: not checked
- % binding of labelled 20-mer [1]: 65%
- % binding of labelled 20-mer [2]: 95%
- % binding of labelled 20-mer [3]: 81%
- % binding of labelled 20-mer [4]: 71%

B4: ActRIIA (peptide)
peptide: IVTVVTMVTNVDFPPKESSL
modifications: not checked
- Kd [41]: 5 µM
- Kd [42]: 5 µM
- Classification [31]: 2 A450 class
- Classification [37]: 3 A450 class

Second part, the binder after the results:

- Kd [5]: 6 µM
- Kd [6]: 8 µM
- Kd [7]: 4 µM
- Classification [8]: 1 A450 class
- Classification [9]: 2 A450 class
- Classification [10]: 2 A450 class
- Classification [11]: 1 A450 class
- Classification [12]: 3 A450 class
- Classification [13]: 1 A450 class
- Classification [14]: 3 A450 class
- Classification [15]: 5 A450 class
- Classification [16]: 1 A450 class
- Classification [17]: 5 A450 class
- Classification [18]: 3 A450 class
- Classification [19]: 1 A450 class
- Classification [20]: 1 A450 class
- Classification [21]: 3 A450 class
- Classification [22]: 1 A450 class
- Classification [23]: 4 A450 class
- Classification [24]: 1 A450 class
- Classification [25]: 1 A450 class
- Classification [26]: 1 A450 class
- Kd [27]: 1 µM
- Kd [28]: 2 µM
- Kd [29]: 4 µM
B2: presenilin-2 (peptide)
peptide: STDNLVRPFMDTLASHQLYI
modifications: not checked

- Classification [30]: 1 A450 class
- Classification [31]: 3 A450 class
- Classification [32]: 1 A450 class
- Classification [33]: 1 A450 class
- Classification [34]: 1 A450 class
- Classification [35]: 1 A450 class
- Classification [36]: 1 A450 class
- Classification [37]: 4 A450 class
- Classification [20]: 1 A450 class
- Classification [38]: 1 A450 class
- Kd [39]: 7 µM
- Kd [40]: 6 µM
B3: PDZ-binding kinase (PBK) (peptide)
peptide: EDPKDRPSAAHIVEALETDV
modifications: not checked
